Data published in patent US20260250318A1, “COMPOSITIONS AND METHODS FOR CROSSING THE BLOOD BRAIN BARRIER” (VOYAGER THERAPEUTICS, INC., priority 2022, published 2026).
Where two headings read alike, the source gives them in different places.

T1: AAVR (Homo sapiens, UniProt Q8IZA0)
T1 construct: expressed in transfected cells; host or cells: HEK 293T
T1 sequence (Q8IZA0 whole entry, looked up): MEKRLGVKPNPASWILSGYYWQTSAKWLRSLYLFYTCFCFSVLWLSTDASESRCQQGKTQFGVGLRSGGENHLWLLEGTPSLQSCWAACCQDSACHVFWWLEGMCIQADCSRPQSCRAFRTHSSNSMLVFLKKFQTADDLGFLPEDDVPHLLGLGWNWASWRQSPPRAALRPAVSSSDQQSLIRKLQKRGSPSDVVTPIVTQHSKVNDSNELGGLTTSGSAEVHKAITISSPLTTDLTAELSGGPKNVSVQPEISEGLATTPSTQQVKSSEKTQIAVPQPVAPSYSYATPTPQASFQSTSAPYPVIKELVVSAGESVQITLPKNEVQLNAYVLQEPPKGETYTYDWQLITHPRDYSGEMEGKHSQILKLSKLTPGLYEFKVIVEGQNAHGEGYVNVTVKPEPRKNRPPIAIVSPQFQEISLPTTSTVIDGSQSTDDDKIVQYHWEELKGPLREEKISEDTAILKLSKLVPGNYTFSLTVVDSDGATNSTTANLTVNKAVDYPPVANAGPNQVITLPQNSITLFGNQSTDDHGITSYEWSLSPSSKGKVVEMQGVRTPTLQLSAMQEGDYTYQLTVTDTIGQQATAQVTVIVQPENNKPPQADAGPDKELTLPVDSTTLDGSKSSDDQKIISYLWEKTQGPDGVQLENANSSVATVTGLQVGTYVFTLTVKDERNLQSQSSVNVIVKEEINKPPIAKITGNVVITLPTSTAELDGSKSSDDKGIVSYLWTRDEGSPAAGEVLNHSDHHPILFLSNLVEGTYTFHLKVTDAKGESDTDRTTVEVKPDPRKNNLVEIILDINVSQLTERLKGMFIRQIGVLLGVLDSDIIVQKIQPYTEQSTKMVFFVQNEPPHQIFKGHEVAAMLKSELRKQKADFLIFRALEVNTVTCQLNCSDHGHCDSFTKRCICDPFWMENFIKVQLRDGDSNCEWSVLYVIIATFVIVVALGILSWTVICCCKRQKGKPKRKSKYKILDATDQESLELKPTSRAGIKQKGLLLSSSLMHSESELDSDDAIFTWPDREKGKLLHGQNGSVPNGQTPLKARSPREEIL


Legend:
[1] = biological target: T1, AAVR; assay type: cell-based; settings: for Luciferase Activity (fold change relative to pCMV6 transfected cells) / Luciferase Activity (RLU): AAVR transfected cells; for Fold change in luciferase activity relative to the pCMV6 control cells: Table 35, Receptor AAVR; for Luciferase Activity (RLU): Table 30
Procedure: Briefly, a transduction assay was performed in that HEK 293T cells were transfected via calcium phosphate transfection with a plasmid expressing ALPL, an AAVR positive control, or a pCMV6 negative control (250 ng or 500 ng of plasmid). AAVR is a universal AAV entry factor involved in AAV transduction. […] At 24-hours post-transduction, GFP expression and luciferase activity were measured to quantify and observe AAV cellular transduction. […] The TTM-002, TTM-006, TTM-018, and TTM-019 capsid variants all comprised the SPH motif immediately subsequent to position 455, numbered relative to SEQ ID NO: 138 and a positive residue in one of the next three residues subsequent to the SPH motif.

[2] = tested on: brain, spinal cord, liver and peripheral tissues; experiment: Individual capsid characterization in mice (qPCR transgene mRNA, viral DNA, IVIS, anti-GFP IHC); settings: for DNA (viral genome quantification), Brain, relative to the AAV9 control / mRNA (transgene expression), Brain, relative to the AAV9 control / DNA (viral genome quantification), Liver, relative to the AAV9 control / mRNA (transgene expression), Liver, relative to the AAV9 control: BALB/c mice, tail vein 5e11 VG/dose; for anti-GFP immunohistochemistry staining in brain and spinal cord: compared to AAV9 control
Procedure: AAV particles were generated with each of these capsid variants encapsulating a luciferase-EGFP transgene driven by a CMV/chicken beta actin promoter in a single stranded viral genome. Each capsid variant and AAV9 control were tested by intravenously administering by tail vein injection, the AAV particle formulation at 5e11 VG/dose (2.5E13 vg/kg) to three female BALB/c mice. The in-life period was 28 days and then various CNS and peripheral tissues were collected for measuring transgene mRNA, transgene protein, and viral DNA (biodistribution).
At 28 days post-injection of the AAV particles encapsulated in the TTM-001 capsid variant (AAV_TTM-001), mice were injected with luciferin and their brains were harvested for IVIS imaging.
The brains isolated from mice injected with the AAV particles encapsulated in the TTM-001 capsid variant (AAV_TTM-001) or the TTM-002 capsid variant (AAV_TTM-002) were assayed by qPCR for the presence of transgene RNA as a measure of transgene expression, and the presence of viral DNA as a measure of viral genome levels. Data were provided as fold over AAV9 (Table 12).
The brain tissues and spinal cords of the mice were also subjected to anti-GFP immunohistochemistry staining to evaluate overall CNS tropism and biodistribution.
Peripheral tissues were also isolated from the mice intravenously injected with the AAV particles encapsulated in the TTM-001 capsid variant or the TTM-002 capsid variant for analysis by qPCR and/or GFP immunohistochemical staining. Transgene mRNA levels and viral genome DNA levels were quantified in the liver by qPCR and the fold over AAV9 was calculated for each capsid variant (Table 12).

[3] = tested on: N-linked galactose on HeLa cells; experiment: Transduction of HeLa cells after neuraminidase treatment (Luc2 activity); assay type: cell-based, human; settings: Neuraminidase 1000 mU/mL

Row | Molecule | Luciferase Activity (fold change relative to pCMV6 transfected cells) ([1]; Table 27) [fold] | Luciferase Activity (fold change relative to pCMV6 transfected cells) ([1]; Table 28) [fold] | Fold change in luciferase activity relative to the pCMV6 control cells [1] [fold] | DNA (viral genome quantification), Brain, relative to the AAV9 control ([2]; 28 days, qPCR) [fold over AAV9] | mRNA (transgene expression), Brain, relative to the AAV9 control ([2]; 28 days, qPCR) [fold over AAV9] | DNA (viral genome quantification), Liver, relative to the AAV9 control ([2]; 28 days, qPCR, liver) [fold over AAV9] | mRNA (transgene expression), Liver, relative to the AAV9 control ([2]; 28 days, qPCR, liver) [fold over AAV9] | fold change in Luc2 activity (RLU) relative to the no neuraminidase control [3] [fold] | Luciferase Activity (RLU) [1] | luciferase signal in brain (IVIS imaging) ([2]; 28 days post-injection, 5e11 VG/dose IV, vs AAV9) | anti-GFP immunohistochemistry staining in brain and spinal cord [2] | transgene mRNA levels in the brain, fold over AAV9 ([2]; qPCR, 28 days, 5e11 VG/dose IV) [fold] | viral genome (DNA) concentrations in the brain, fold over AAV9 ([2]; qPCR, 28 days, 5e11 VG/dose IV) [fold] | viral genome DNA levels in the liver compared to AAV9 ([2]; qPCR, liver) | transduction in cells expressing the AAVR control ([1]; compared with ALPL expression) | transgene mRNA levels in the liver compared to AAV9 ([2]; qPCR, liver)
1 | AAV9: wild-type AAV9 control capsid [reference compound] | 4.3 | 14 | 4.9 | 1.0 | 1.0 | 1.0 | 1.0 | 10.4 | – | – | – | – | – | – | – | –
2 | TTM-001: AAV9 capsid variant comprising SPHSKA (SEQ ID NO: 941) in loop IV (protein) chain 1: MAADGYLPDWLEDNLSEGIREWWALKPGAPQPKANQQHQDNARGLVLPGYKYLGPGNGLDKGEPVNAADAAALEHDKAYDQQLKAGDNPYLKYNHADAEFQERLKEDTSFGGNLGRAVFQAKKRLLEPLGLVEEAAKTAPGKKRPVEQSPQEPDSSAGIGKSGAQPAKKRLNFGQTGDTESVPDPQPIGEPPAAPSGVGSLTMASGGGAPVADNNEGADGVGSSSGNWHCDSQWLGDRVITTSTRTWALPTYNNHLYKQISNSTSGGSSNDNAYFGYSTPWGYFDFNRFHCHFSPRDWQRLINNNWGFRPKRLNFKLFNIQVKEVTDNNGVKTIANNLTSTVQVFTDSDYQLPYVLGSAHEGCLPPFPADVFMIPQYGYLTLNDGSQAVGRSSFYCLEYFPSQMLRTGNNFQFSYEFENVPFHSSYAHSQSLDRLMNPLIDQYLYYLSKTINGSGSPHSKAQNQQTLKFSVAGPSNMAVQGRNYIPGPSYRQQRVSTTVTQNNNSEFAWPGASSWALNGRNSLMNPGPAMASHKEGEDRFFPLSGSLIFGKQGTGRDNVDADKVMITNEEEIKTTNPVATESYGQVATNHQSAQAQAQTGWVQNQGILPGMVWQDRDVYLQGPIWAKIPHTDGNFHPSPLMGGFGMKHPPPQILIKNTPVPADPPTAFNKDKLNSFITQYSTGQVSVEIEWELQKENSKRWNPEIQYTSNYYKSNNVEFAVNTEGVYSEPRPIGTRYLTRNL chain 2: GSGSPHSKAQNQQT | 2.4 | – | – | 32.0315 | 30.4503 | 0.4802 | 1.2356 | 9.1 | 13,981 RLU | Robust luciferase signal | significantly stronger staining and payload expression | 30 | 32 | only half as much | – | –
3 | TTM-002: AAV9 capsid variant comprising HDSPHK (SEQ ID NO: 2) in loop IV (protein) chain 1: MAADGYLPDWLEDNLSEGIREWWALKPGAPQPKANQQHQDNARGLVLPGYKYLGPGNGLDKGEPVNAADAAALEHDKAYDQQLKAGDNPYLKYNHADAEFQERLKEDTSFGGNLGRAVFQAKKRLLEPLGLVEEAAKTAPGKKRPVEQSPQEPDSSAGIGKSGAQPAKKRLNFGQTGDTESVPDPQPIGEPPAAPSGVGSLTMASGGGAPVADNNEGADGVGSSSGNWHCDSQWLGDRVITTSTRTWALPTYNNHLYKQISNSTSGGSSNDNAYFGYSTPWGYFDFNRFHCHFSPRDWQRLINNNWGFRPKRLNFKLFNIQVKEVTDNNGVKTIANNLTSTVQVFTDSDYQLPYVLGSAHEGCLPPFPADVFMIPQYGYLTLNDGSQAVGRSSFYCLEYFPSQMLRTGNNFQFSYEFENVPFHSSYAHSQSLDRLMNPLIDQYLYYLSKTINGHDSPHKSGQNQQTLKFSVAGPSNMAVQGRNYIPGPSYRQQRVSTTVTQNNNSEFAWPGASSWALNGRNSLMNPGPAMASHKEGEDRFFPLSGSLIFGKQGTGRDNVDADKVMITNEEEIKTTNPVATESYGQVATNHQSAQAQAQTGWVQNQGILPGMVWQDRDVYLQGPIWAKIPHTDGNFHPSPLMGGFGMKHPPPQILIKNTPVPADPPTAFNKDKLNSFITQYSTGQVSVEIEWELQKENSKRWNPEIQYTSNYYKSNNVEFAVNTEGVYSEPRPIGTRYLTRNL chain 2: GHDSPHKSGQNQQT | 4.1 | – | 7.3 | 47.2810 | 66.2161 | 0.0277 | 0.2016 | 13.7 | 11,261 RLU | – | significantly stronger staining and payload expression | 66 | – | greatly reduced | did not result in the same increase in transduction | greatly reduced
